# Laboratory results: paper PMC4274154, “DEAF1 Binds Unmethylated and Variably Spaced CpG Dinucleotide Motifs”
# T1: DEAF1-FLAG (UniProt O75398 1-565)
# T1 sequence: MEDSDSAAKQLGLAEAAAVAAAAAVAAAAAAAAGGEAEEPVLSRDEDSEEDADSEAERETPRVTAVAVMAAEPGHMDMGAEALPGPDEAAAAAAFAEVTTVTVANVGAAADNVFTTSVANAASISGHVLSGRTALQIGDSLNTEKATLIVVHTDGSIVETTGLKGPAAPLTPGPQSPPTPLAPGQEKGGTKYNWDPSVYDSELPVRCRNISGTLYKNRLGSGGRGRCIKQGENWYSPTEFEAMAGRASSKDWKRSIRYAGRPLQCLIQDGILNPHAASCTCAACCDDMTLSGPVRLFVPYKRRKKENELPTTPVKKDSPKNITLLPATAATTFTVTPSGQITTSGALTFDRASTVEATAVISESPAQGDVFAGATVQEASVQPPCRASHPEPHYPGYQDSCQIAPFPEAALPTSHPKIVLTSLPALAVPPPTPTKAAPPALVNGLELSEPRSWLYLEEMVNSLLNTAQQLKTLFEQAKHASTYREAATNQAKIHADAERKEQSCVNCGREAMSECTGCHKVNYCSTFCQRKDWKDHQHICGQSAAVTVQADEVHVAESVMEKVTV
# Biological target: T1, DEAF1-FLAG
# Experiment: EMSA; EMSA: 200 ng DEAF1-FLAG, 30 min at room temperature, 1x EMSA binding buffer (composition and pH not given), 1 ug dA:dT, 5% native polyacrylamide gel
# Settings: protein: recombinant; tags: FLAG; chain copies: 2; label: 32P
row,Binder,binding result
1,6-space probe (two TTCGGG motifs) (dsDNA) DNA 1: TTGAGTTCGGGTGTTCGGGCTCAA DNA 2: TTGAGCCCGAACACCCGAACTCAA,binds
2,EIF4G3 promoter probe (dsDNA) DNA 1: ACTTCGGACTTTTTCGGAAT DNA 2: ATTCCGAAAAAGTCCGAAGT,binds
3,8-space probe (two TTCGGG motifs) (dsDNA) DNA 1: TTGAGTTCGGGAAACTTCGGGCTCAA DNA 2: TTGAGCCCGAAGTTTCCCGAACTCAA,binds
4,9-space probe (dsDNA) DNA 1: TTGAGTTCGGGAAAACTTCGGGCTCAA DNA 2: TTGAGCCCGAAGTTTTCCCGAACTCAA,binds
5,10-space probe (dsDNA) DNA 1: TTGAGTTCGGGAAAAACTTCGGGCTCAA DNA 2: TTGAGCCCGAAGTTTTTCCCGAACTCAA,binds
6,11-space probe (dsDNA) DNA 1: TTGAGTTCGGGAAAAAACTTCGGGCTCAA DNA 2: TTGAGCCCGAAGTTTTTTCCCGAACTCAA,binds
7,6mut (TTCGGG to AACGCC in both half-sites) (dsDNA) DNA 1: TTGAGAACGCCTGAACGCCCTCAA DNA 2: TTGAGGGCGTTCAGGCGTTCTCAA,no binding
8,8mut (TTCGGG to AACGCC in both half-sites) (dsDNA) DNA 1: TTGAGAACGCCAAACAACGCCCTCAA DNA 2: TTGAGGGCGTTGTTTGGCGTTCTCAA,no binding
9,"6-space methylated probe (dsDNA, 5-methylcytosine on both strands at the CpG of the second half-site) DNA 1: TTGAGTTCGGGTGTTCGGGCTCAA DNA 2: TTGAGCCCGAACACCCGAACTCAA",no binding
